# Experimental data taken from US12697371B2, “Method for preventing, treating or delaying myocardial damage using neuregulin and composition” (ZENSUN (SHANGHAI) SCIENCE & TECHNOLOGY, CO., LTD., priority 2019, dated 2026).
# Values joined by “and” are separate entries in the source; they are usually repeats but may differ in a detail not shown here. Equal entries are not always repeated.
# Legend:
# [1] = system: rats with acute myocardial infarction caused by left coronary artery ligation; assay: Echocardiography, rat acute myocardial infarction, long-term subcutaneous NRG followed by withdrawal through dose reduction (Example 4); assay type: in vivo, Wistar rats
# Protocol: (§1) Established in the same way as the rat model of heart failure caused by coronary artery ligation in 5.1, Embodiment 1
# The rats were randomly divided into groups and medicated upon coronary artery ligation. According to post-ligation survival, the rats were randomly divided into 2 groups by body weight. Subcutaneous injection was given 3 times a day, and the animals were weighed once a day. The animals were medicated by weight. Echocardiography was performed on day 10 after modeling. All the animals underwent echocardiography every 10 days, underwent echocardiography every week after dose reduction, and underwent echocardiography every 2 weeks after complete withdrawal. All the animals were medicated continuously till day 60, and then a three-week dose-reduction withdrawal plan was implemented: The administered dose was reduced to 15 μg/kg, 7.5 μg/kg and 3.75 μg/kg in the first, second and third week, respectively. The drug was completely withdrawn after three-week dose reduction to observe the clinical symptoms.
# (§2) After being anesthetized with 4% isoflurane, the rats were fixed onto the operating board in the left lateral recumbent position. The head of the rats was fixed in the breathing mask of the gaseous anesthesia machine, with isoflurane used for maintenance of anesthesia. After chest hair removal, the skin was disinfected with 75% alcohol and coated with a coupling agent. An echocardiography probe was used to detect any echo signal from the left ventricle of the rats. The left ventricular end-diastolic diameter and left ventricular end-systolic diameter (D) were measured. The left ventricular end-diastolic volume (EDV) and end-systolic volume (ESV) were calculated. The ejection fraction (EF) value was found, EP=(EDV−ESV)/EDV*100%.
# (§3) All experimental data were expressed in ±SD. GraphPad Prism6 was used for one-way ANOVA analysis. P<0.05 indicates a significant inter-group difference; P<0.01 indicates an extremely significant inter-group difference.
# [2] = system: rats with acute myocardial infarction caused by left coronary artery ligation; assay: Echocardiography, rat acute myocardial infarction, long-term subcutaneous NRG followed by withdrawal through frequency reduction (Example 3); assay type: in vivo, Wistar rats
# Protocol: as §1
# The rats were randomly divided into groups and medicated upon coronary artery ligation. According to post-ligation survival, the rats were randomly divided into two groups, including the excipient group and the NRG30 μg/kg group. There were 19 rats in the excipient group and there were 18 rats in the NRG group. Continuous administration of medicine started on the day following the modeling, with subcutaneous administration for 3 times a day, at a dose of 10 μg/kg. Echocardiography was performed on day 14 after modeling. All the animals were medicated continuously until day 38, and the animals in the NRG group were examined by echocardiography. The animals in the NRG group were averagely divided into two subgroups, with the animals in one subgroup continuing to be medicated while the animals in the other subgroup stopped taking medicine at an early stage. The excipient group continued to be medicated. For the continuous NRG administration subgroup, a 3-week withdrawal plan was implemented on day 49: medicated every other day in the first week; medicated every three days in the second week; subcutaneously injected with NRG every four days in the third week. In terms of administration method, the rats were subcutaneously injected with NRG 3 times a day, exactly the same as above. For the NRG withdrawal subgroup, the clinical symptoms of the rats were observed. All the animals underwent echocardiography every week for monitoring of the changes in the cardiac function.
# as §2, with “calculated. Also, the” for “calculated. The”, “found, EF=(EDV−ESV)/EDV*100%.” for “found, EP=(EDV−ESV)/EDV*100%.”
# as §3
# [3] = DAY 10, 30 μg/kg/Day sc, 3 times a day, continuous
# [4] = DAY 30, 30 μg/kg/Day sc, 3 times a day, continuous
# [5] = DAY 50, 30 μg/kg/Day sc, 3 times a day, continuous
# [6] = DAY 60, 30 μg/kg/Day sc, 3 times a day, continuous
# [7] = DAY 81, 30 μg/kg/Day sc × 60 days, then three weeks of dose reduction (15, 7.5, 3.75 μg/kg)
# [8] = DAY 88, after complete withdrawal on day 81 (30 μg/kg/Day sc × 60 days + 3-week dose reduction)
# [9] = DAY 102, after complete withdrawal on day 81 (30 μg/kg/Day sc × 60 days + 3-week dose reduction)
# [10] = DAY 116, after complete withdrawal on day 81 (30 μg/kg/Day sc × 60 days + 3-week dose reduction)
# [11] = DAY 143 (ninth week after withdrawal), after complete withdrawal on day 81
# [12] = DAY 14, 30 μg/kg sc (10 μg/kg 3 times a day), continuous
# [13] = DAY 21, 30 μg/kg sc (10 μg/kg 3 times a day), continuous
# [14] = DAY 28, 30 μg/kg sc (10 μg/kg 3 times a day), continuous
# [15] = DAY 35, 30 μg/kg sc (10 μg/kg 3 times a day), continuous
# [16] = DAY 38, Administration subgroup, 30 μg/kg sc continued
# [17] = DAY 38, Withdrawal subgroup, 30 μg/kg sc until day 38, then stopped
# [18] = DAY 42, Administration subgroup, 30 μg/kg sc continued
# [19] = DAY 42, Withdrawal subgroup, 30 μg/kg sc until day 38, then stopped
# [20] = DAY 49, Administration subgroup, 30 μg/kg sc continued
# [21] = DAY 49, Withdrawal subgroup, 30 μg/kg sc until day 38, then stopped
# [22] = DAY 56, Administration subgroup, 30 μg/kg sc, 3-week gradual withdrawal by frequency reduction from day 49
# [23] = DAY 56, Withdrawal subgroup, 30 μg/kg sc until day 38, then stopped
# [24] = DAY 63, Administration subgroup, 30 μg/kg sc, 3-week gradual withdrawal by frequency reduction from day 49
# [25] = DAY 63, Withdrawal subgroup, 30 μg/kg sc until day 38, then stopped
# [26] = DAY 68, Administration subgroup, 30 μg/kg sc, 3-week gradual withdrawal by frequency reduction from day 49
# [27] = DAY 68, Withdrawal subgroup, 30 μg/kg sc until day 38, then stopped
# [28] = DAY 74, Administration subgroup, 30 μg/kg sc, 3-week gradual withdrawal by frequency reduction from day 49
# [29] = DAY 74, Withdrawal subgroup, 30 μg/kg sc until day 38, then stopped
molecule,measurement,setting,value
"NRG: fragment of the NRG-1β2 isomer, 177-237 amino acid fragment containing an EGF-like domain (SEQ ID NO: 1); developed by Zensun (protein, listed as Homo sapiens) SHLVKCAEKEKTFCVNGGECFMVKDLSNPSRYLCKCPNEFTGDRCQNYVMASFYKAEELYQ",LVEDd and LVEDs compared with the control group,"[1]; 30 μg/kg/Day sc, 60 consecutive days",significantly reduced
same,EF value compared with the control group,"[1]; 30 μg/kg/Day sc, after 60 days of continuous administration",increased significantly
same,EF,[1]; [3],50.5 ± 4.96 %
same,LVEDd,[1]; [3],0.821 ± 0.05 cm
same,LVEDs,[1]; [3],0.637 ± 0.06 cm
same,EF,[1]; [4],46.8 ± 6.37 %
same,LVEDd,[1]; [4],0.912 ± 0.06 cm
same,LVEDs,[1]; [4],0.725 ± 0.07 cm
same,EF,[1]; [5],44.4 ± 7.85 %
same,LVEDd,[1]; [5],0.934 ± 0.07 cm
same,LVEDs,[1]; [5],0.754 ± 0.09 cm
same,EF,[1]; [6],43.8±8.0% and 43.8 ± 8.04 %
same,LVEDd,[1]; [6],0.981±0.08 cm
same,LVEDs,[1]; [6],0.794±0.08 cm
same,EF,[1]; [7],42.3±11.2%
same,LVEDd,[1]; [7],0.981±0.08 cm and 0.981 ± 0.07 cm
same,LVEDs,[1]; [7],0.799±0.08 cm
same,EF,[1]; [8],39.3±12.7% and 39.3 ± 12.71 %
same,LVEDd,[1]; [8],0.994±0.08 cm
same,LVEDs,[1]; [8],0.826±0.10 cm
same,EF,[1]; [9],36.6 ± 7.69 %
same,LVEDd,[1]; [9],1.031 ± 0.07 cm
same,LVEDs,[1]; [9],0.872 ± 0.08 cm
same,EF,[1]; [10],33.3 ± 5.12 %
same,LVEDd,[1]; [10],1.054 ± 0.07 cm
same,LVEDs,[1]; [10],0.908 ± 0.08 cm
same,EF,[1]; [11],33.4±7.6%
same,LVEDd,[1]; [11],1.104±0.08 cm
same,LVEDs,[1]; [11],0.950±0.09 cm
same,"Cardiac function, overall conclusion",[1]; a long time after withdrawal,significant improving effect on the cardiac function
same,EF value compared with the control group,[1]; nine weeks after withdrawal,still showed a rising trend
same,LVEDd and LVEDs compared with the control group,[1]; nine weeks after withdrawal,there remained a significant difference
same,"LVEDd and LVEDs, cardiac systolic function, left ventricular remodeling","[2]; 30 μg/kg sc, after 35 consecutive days","significantly reduce the LVEDd and LVEDs and strengthen the cardiac systolic function, thereby reversing left ventricular remodeling"
same,EF,[2]; [12],44.5 ± 7.85 %
same,LVEDd,[2]; [12],0.860 ± 0.04 cm
same,LVEDs,[2]; [12],0.694 ± 0.06 cm
same,EF,[2]; [13],45.5 ± 7.96 %
same,LVEDd,[2]; [13],0.905 ± 0.04 cm
same,LVEDs,[2]; [13],0.725 ± 0.06 cm
same,EF,[2]; [14],44.3 ± 6.95 %
same,LVEDd,[2]; [14],0.928 ± 0.05 cm
same,LVEDs,[2]; [14],0.749 ± 0.06 cm
same,EF,[2]; [15],44.9±6.09%
same,LVEDd,[2]; [15],0.953±0.05 cm
same,LVEDs,[2]; [15],0.767±0.06 cm
same,EF,[2]; [16],44.9 ± 7.03%
same,LVEDd,[2]; [16],0.953 ± 0.06 cm
same,LVEDs,[2]; [16],0.764 ± 0.07 cm
same,EF,[2]; [17],44.7 ± 6.26%
same,LVEDd,[2]; [17],0.952 ± 0.05 cm
same,LVEDs,[2]; [17],0.767 ± 0.07 cm
same,EF,[2]; [18],46.5 ± 4.01 %
same,LVEDd,[2]; [18],0.948 ± 0.04 cm
same,LVEDs,[2]; [18],0.755 ± 0.04 cm
same,EF,[2]; [19],39.1 ± 7.11 %
same,LVEDd,[2]; [19],0.969 ± 0.04 cm
same,LVEDs,[2]; [19],0.808 ± 0.05 cm
same,EF,[2]; [20],45.0±5.51%
same,LVEDd,[2]; [20],0.973±0.07 cm
same,LVEDs,[2]; [20],0.783±0.08 cm
same,EF,[2]; [21],42.2±5.48%
same,LVEDd,[2]; [21],0.987±0.05 cm
same,LVEDs,[2]; [21],0.807±0.06 cm
same,EF,[2]; [22],38.8 ± 3.78 %
same,LVEDd,[2]; [22],1.008 ± 0.06 cm
same,LVEDs,[2]; [22],0.843 ± 0.06 cm
same,EF,[2]; [23],39.0 ± 6.24 %
same,LVEDd,[2]; [23],1.031 ± 0.05 cm
same,LVEDs,[2]; [23],0.859 ± 0.07 cm
same,EF,[2]; [24],41.3±4.92%
same,LVEDd,[2]; [24],0.989±0.07 cm
same,LVEDs,[2]; [24],0.814±0.08 cm
same,EF,[2]; [25],35.4±6.78%
same,LVEDd,[2]; [25],1.043±0.06 cm
same,LVEDs,[2]; [25],0.887±0.06 cm
same,EF,[2]; [26],40.8±4.67%
same,LVEDd,[2]; [26],0.976±0.06 cm
same,LVEDs,[2]; [26],0.805±0.07 cm
same,EF,[2]; [27],38.9±5.04%
same,LVEDd,[2]; [27],1.010±0.06 cm
same,LVEDs,[2]; [27],0.842 ± 0.06 cm
same,EF,[2]; [28],38.0 ± 3.81 %
same,LVEDd,[2]; [28],1.004 ± 0.05 cm
same,LVEDs,[2]; [28],0.842 ± 0.05 cm
same,EF,[2]; [29],34.6 ± 7.55%
same,LVEDd,[2]; [29],1.060 ± 0.05 cm
same,LVEDs,[2]; [29],0.905 ± 0.05 cm
same,Effect of sudden withdrawal on cardiac function,"[2]; day 49, withdrawal subgroup stopped after day 38",exerted some effect on the cardiac function of the rats
same,"Cardiac function and cardiac remodeling, overall conclusion",[2]; long-term sc administration followed by withdrawal through frequency reduction,can improve the cardiac function of the rats with myocardial infarction and reduce cardiac remodeling
